# According to patent publication US20240239894A1 (AstraZeneca / MedImmune, published 2024):
# T1: Human B7-H4-Fc (Human B7H4 ECD, Fc_6His) (human)
# T1 construct: also called FcHis6 tagged human B7-H4
# T1 sequence (Q7Z7D3 whole entry, looked up): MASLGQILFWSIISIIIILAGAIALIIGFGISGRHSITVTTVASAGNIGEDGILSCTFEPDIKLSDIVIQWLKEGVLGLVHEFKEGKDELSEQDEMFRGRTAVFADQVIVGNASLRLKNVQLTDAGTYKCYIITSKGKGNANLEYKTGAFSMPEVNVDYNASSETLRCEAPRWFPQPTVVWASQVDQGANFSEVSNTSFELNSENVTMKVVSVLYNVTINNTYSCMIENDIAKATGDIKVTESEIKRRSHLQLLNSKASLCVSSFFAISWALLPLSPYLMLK
# T2: Murine B7-H4-Fc (Mouse B7H4 ECD, Fc_6His) (mouse, UniProt Q7TSP5 25-257)
# T2 construct: extracellular domain; also called mouse B7-H4-Fc; FcHis6 tagged murine B7-H4
# T2 sequence (Q7TSP5 whole entry, looked up): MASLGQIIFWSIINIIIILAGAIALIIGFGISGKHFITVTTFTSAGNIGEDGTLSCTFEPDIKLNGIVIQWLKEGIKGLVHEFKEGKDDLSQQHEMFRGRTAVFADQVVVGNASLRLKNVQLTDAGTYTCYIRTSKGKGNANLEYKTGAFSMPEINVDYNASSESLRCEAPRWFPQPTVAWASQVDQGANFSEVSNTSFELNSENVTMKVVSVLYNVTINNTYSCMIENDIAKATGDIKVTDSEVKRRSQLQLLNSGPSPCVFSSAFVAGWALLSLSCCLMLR
# T3: Human B7-H4 ECD-Flag-His10 (monomeric) (human, UniProt Q7Z7D3 25-259)
# T3 construct: Minimally biotinylated for KinExA; also called hB7H4-ECD-Flag-His10; B7-H4-FLAG
# T3 sequence: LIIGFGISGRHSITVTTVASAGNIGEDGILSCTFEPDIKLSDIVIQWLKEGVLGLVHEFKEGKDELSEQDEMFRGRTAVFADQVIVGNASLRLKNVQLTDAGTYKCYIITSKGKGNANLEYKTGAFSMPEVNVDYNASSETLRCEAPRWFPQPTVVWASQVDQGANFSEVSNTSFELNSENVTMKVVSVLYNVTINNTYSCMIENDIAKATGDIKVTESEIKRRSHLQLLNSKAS
# T4: Murine B7-H4 ECD-Flag-His10 (monomeric) (mouse, UniProt Q7TSP5 25-257)
# T4 construct: extracellular domain; also called FlagHis10 murine B7-H4
# T4 sequence (looked up): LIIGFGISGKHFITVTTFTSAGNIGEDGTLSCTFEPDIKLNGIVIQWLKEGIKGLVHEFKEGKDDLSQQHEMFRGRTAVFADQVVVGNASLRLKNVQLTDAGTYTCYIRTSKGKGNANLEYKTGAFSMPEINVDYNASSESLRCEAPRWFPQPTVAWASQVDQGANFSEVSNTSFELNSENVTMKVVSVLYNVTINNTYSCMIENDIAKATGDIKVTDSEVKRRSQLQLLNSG
# T5: huHHLA2 (human, UniProt Q9UM44 23-344)
# T5 construct: Sourced antigen; construct not described; also called Human HHLA2
# T5 sequence (looked up): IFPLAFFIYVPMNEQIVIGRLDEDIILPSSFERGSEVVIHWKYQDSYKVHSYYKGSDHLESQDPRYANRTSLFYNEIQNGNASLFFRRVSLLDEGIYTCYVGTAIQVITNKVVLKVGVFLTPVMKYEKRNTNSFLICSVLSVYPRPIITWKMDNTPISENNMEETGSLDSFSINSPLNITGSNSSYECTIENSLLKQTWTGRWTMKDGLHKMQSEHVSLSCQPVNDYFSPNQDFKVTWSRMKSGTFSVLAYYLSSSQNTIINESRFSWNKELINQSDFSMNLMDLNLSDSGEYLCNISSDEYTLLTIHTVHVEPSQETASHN
# T6: huBTN1A1 (human, UniProt Q13410 27-242, limits assumed)
# T6 construct: Sourced antigen; construct not described; also called Human BTN1A1
# T6 sequence (looked up): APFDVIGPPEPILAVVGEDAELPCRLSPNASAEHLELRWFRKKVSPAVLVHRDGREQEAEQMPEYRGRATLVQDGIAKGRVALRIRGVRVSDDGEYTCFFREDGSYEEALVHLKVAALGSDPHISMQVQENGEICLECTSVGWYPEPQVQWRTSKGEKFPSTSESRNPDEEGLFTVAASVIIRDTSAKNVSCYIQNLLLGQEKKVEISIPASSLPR
# T7: huB7-H3 (human, UniProt Q5ZPR3 29-461, limits assumed)
# T7 construct: Sourced antigen; construct not described; also called Human B7-H3
# T7 sequence (looked up): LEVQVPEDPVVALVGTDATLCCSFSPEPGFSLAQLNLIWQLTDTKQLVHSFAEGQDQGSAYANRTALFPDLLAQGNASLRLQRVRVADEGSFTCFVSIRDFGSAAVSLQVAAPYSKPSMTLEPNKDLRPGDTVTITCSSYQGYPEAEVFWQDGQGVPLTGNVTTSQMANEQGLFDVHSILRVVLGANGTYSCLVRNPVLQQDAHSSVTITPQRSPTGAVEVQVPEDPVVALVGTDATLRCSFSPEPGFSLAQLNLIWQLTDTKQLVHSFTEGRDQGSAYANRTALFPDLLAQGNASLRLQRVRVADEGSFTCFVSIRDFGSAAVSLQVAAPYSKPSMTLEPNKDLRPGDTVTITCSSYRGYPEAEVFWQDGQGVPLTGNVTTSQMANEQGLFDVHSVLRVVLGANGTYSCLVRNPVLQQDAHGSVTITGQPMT
# T8: huB7-H2 (human, UniProt O75144 19-258)
# T8 construct: Sourced antigen; construct not described; also called Human B7-H2
# T8 sequence (looked up): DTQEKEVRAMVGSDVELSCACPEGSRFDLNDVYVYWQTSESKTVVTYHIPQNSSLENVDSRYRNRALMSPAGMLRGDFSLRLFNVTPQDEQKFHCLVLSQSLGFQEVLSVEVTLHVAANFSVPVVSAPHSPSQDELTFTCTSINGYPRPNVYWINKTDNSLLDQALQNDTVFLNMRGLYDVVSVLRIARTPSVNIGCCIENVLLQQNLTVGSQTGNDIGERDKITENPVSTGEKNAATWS
# Columns and labels:
# [1] = molecular target: T1, Human B7-H4-Fc (Human B7H4 ECD, Fc_6His); test: HTRF binding, human IgG1
# [2] = molecular target: T9, Cyno B7-H4-Fc (Cyno B7H4 ECD, FcTM_6His) (cynomolgus monkey); test: HTRF binding, human IgG1
# T9 construct: extracellular domain; also called cynomolgus B7-H4-Fc
# [3] = molecular target: T2, Murine B7-H4-Fc (Mouse B7H4 ECD, …); test: HTRF binding, human IgG1
# [4] = molecular target: T3, Human B7-H4 ECD-Flag-His10 (monomeric); test: Octet BLI, hIgG1 on Protein G (n = 1)
# [5] = molecular target: T4, Murine B7-H4 ECD-Flag-His10 (monomeric); test: Octet BLI, hIgG1 on Protein G (n = 1)
# [6] = molecular target: T10, Human B7H4 ECD (SV), splice variant, 10His_FLAG (human); test: Octet BLI, hIgG1 on Protein G (n = 1)
# T10 construct: also called B7-H4-SV
# [7] = molecular target: T5, huHHLA2; test: ELISA, absorbance 450 nm, antigen human HHLA2 GST
# [8] = molecular target: T6, huBTN1A1; test: ELISA, absorbance 450 nm, antigen human BTN1A1 GST
# [9] = molecular target: T11, huBTN3A2 (human, UniProt P78410 30-248, limits assumed); test: ELISA, absorbance 450 nm, antigen human BTN3A2 GST
# T11 construct: Sourced antigen; construct not described; also called Human BTN3A2
# [10] = molecular target: T7, huB7-H3; test: ELISA, absorbance 450 nm, antigen human B7-H3 (ECD) Fc
# [11] = molecular target: T12, huB7-H1 (human, UniProt Q9NZQ7 19-238); test: ELISA, absorbance 450 nm, antigen human B7-H1(ECD) F10H
# T12 construct: Sourced antigen; construct not described; also called Human B7-H1
# [12] = molecular target: T8, huB7-H2; test: ELISA, absorbance 450 nm, antigen human B7-H2 (ECD) F10H
# T11 sequence (P78410 30-248 limits assumed): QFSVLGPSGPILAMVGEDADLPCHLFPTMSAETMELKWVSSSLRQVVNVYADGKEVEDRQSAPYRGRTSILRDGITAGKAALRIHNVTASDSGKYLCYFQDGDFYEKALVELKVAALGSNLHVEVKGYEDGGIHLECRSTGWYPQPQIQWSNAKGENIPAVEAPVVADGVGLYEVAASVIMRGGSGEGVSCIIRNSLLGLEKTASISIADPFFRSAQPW
# T12 sequence (Q9NZQ7 19-238 limits assumed): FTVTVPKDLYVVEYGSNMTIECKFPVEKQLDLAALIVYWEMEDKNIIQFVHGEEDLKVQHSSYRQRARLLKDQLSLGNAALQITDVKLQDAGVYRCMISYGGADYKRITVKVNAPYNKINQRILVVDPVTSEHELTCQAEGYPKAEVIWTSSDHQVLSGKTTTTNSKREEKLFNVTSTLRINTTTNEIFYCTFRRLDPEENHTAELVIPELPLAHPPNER
Binder,EC50 [1] [nM],Max [1],EC50 [2] [nM],Max [2],EC50 [3] [nM],Max [3],Kd [4] [nM],koff [4] [s⁻¹],kon [4] [M⁻¹ s⁻¹],Kd [5] [nM],koff [5] [s⁻¹],kon [5] [M⁻¹ s⁻¹],Kd [6] [nM],koff [6] [s⁻¹],kon [6] [M⁻¹ s⁻¹],further results
"ZY0EPQ-E02 human IgG1 (antibody, V domains shown) VH: QVQLQQWGAGLLKPSETLSLTCAVYGGSFSGYYWNWIRQPPGKGLEWIGEINHSGSTNYNPSLKSRVTILVDTSKNQFSLKLSSVTAADTAVYYCARNLYNWNLDSWGQGTLVTVSS VL: DIQMTQSPSSLSASVGDRVTITCRASQGIRNDLGWYQQKPGRAPKRLIYVASSLQSGVPSRFSGSGSGTEFTLTISSLQPEDFATYYCLQHNSYPRTFGQGTKVEIK",0.38,1130,0.33,987,1.49,279,24,0.00208,85900,498,0.0498,100000,1030,0.00252,2460,–
"ZY0EQD-E02 human IgG1 (antibody, V domains shown) VH: QVQLQQWGAGLLKPSETLSLTCAVYGGSFSGYYWNWIRQPPGKGLEWIGEINHSGSTSYNPSLKSRVTISVDTSKNQFSLKLSSVTAADTAVYYCARVLYNWNVDSWGQGTLVTVSS VL: DIQMTQSPSSLSASVGDRVTITCRASQDIRNDVGWYQQKPGKAPKRLIYAASRLQSGVPSRFSGSGSGTEFTLTISSLQPEDFATYYCLQHNSYPRTFGQGTKVEIK",0.35,1240,0.28,1130,1.4,167,14.9,0.00321,216000,625,0.213,341000,834,0.00349,4190,–
"human ZY0EPQ-E02 (antibody, V domains shown) VH: QVQLQQWGAGLLKPSETLSLTCAVYGGSFSGYYWNWIRQPPGKGLEWIGEINHSGSTNYNPSLKSRVTILVDTSKNQFSLKLSSVTAADTAVYYCARNLYNWNLDSWGQGTLVTVSS VL: DIQMTQSPSSLSASVGDRVTITCRASQGIRNDLGWYQQKPGRAPKRLIYVASSLQSGVPSRFSGSGSGTEFTLTISSLQPEDFATYYCLQHNSYPRTFGQGTKVEIK",–,–,–,–,–,–,–,–,–,–,–,–,–,–,–,binding result [7]: no binding (tested: about 10 µg/ml (antigen)); binding result [8]: no binding (tested: 10 µg/ml (antigen)); binding result [9]: no binding (tested: about 10 µg/ml (antigen)); binding result [10]: no binding; binding result [11]: no binding (tested: 10 µg/ml (antigen)); binding result [12]: no binding (tested: 10 µg/ml (antigen))
"ZY0EO5-E07 human IgG1 (antibody, V domains shown, also called ZY0E05-E07; E05-E07) VH: QVQLQESGPGLVKPSQTLSLTCTVSGGSISSGGYYWSWIRQHPGKGLEWIGNIYYSGSTYYNPSLKSRVTISVDTSKNQFSLKLSSVTAADTAVYYCAREKALASVIPSGYENYYVVDVWGQGTTVTVSS VL: DIQLTQSPSFLSASVGGRVTITCWASQGIAGYLAWYQQKPGKAPKLLIYAASTLQSGVPSRFSGSGSGTEFTLTISSLQPEDFATYYCQHLNSYPLTFGGGTKVEIK",0.19,1710,0.18,1360,0.21,1300,14.6,0.000318,21700,23.2,0.000415,17900,182,0.000528,2910,–

# The next lines start with results.
EC50 [1] [nM],Max [1],EC50 [2] [nM],Max [2],EC50 [3] [nM],Max [3],Kd [4] [nM],koff [4] [s⁻¹],kon [4] [M⁻¹ s⁻¹],Kd [5] [nM],koff [5] [s⁻¹],kon [5] [M⁻¹ s⁻¹],Kd [6] [nM],koff [6] [s⁻¹],kon [6] [M⁻¹ s⁻¹],Binder,further results
0.15,1820,0.14,1480,0.19,1320,11.7,0.000362,31000,19.8,0.000493,24900,127,0.000598,4710,"ZY0EOB-F05 human IgG1 (antibody, V domains shown) VH: QVQLQESGPGLVKPSQTLSLTCTVSDGSISSGGYYWSWIRQHPGKGLEWIGNIYYSGSTYYNPSLKSRVTISVDTSKNQFSLKLNSVTAADTAVYYCATEKALATVTPSGYENYYTVDVWGQGTTVTVSS VL: DIQLTQSPSFLSASVGDRVTITCWASQGISSYLAWYQQKPGKAPKLLIYAASTLQSGVPSRFSGSGSGTEFTLTISSLQPEDFATYYCQHLNSYPLTFGGGTKVEIK",–
0.3,1220,0.33,946,0.18,1320,7,0.000363,48800,9,0.000551,60200,–,–,–,"ZY0EP0-C07 human IgG1 (antibody, V domains shown, also called ZY0EPO-C07) VH: QVQLVESGGVLVKPGGSLRLSCAASGFTLSDYYMSWIRQAPGMGLEWVSYISSSGSTIYYTDSVKGRFTISRDSAKNSLYLQMNSLRAEDTAVYYCARDGVGFDYWGQGTLVTVSS VL: EIVLTQSPGTLSLFPGERATLSCRASQSVSSSYLAWYQQKPGQSPRLLIYAASSRATGIPDRFSGSGSGTDFTLTISRLEPEDFAVYYCQQYGSSPLYTFGQGTKLEIK",–
